Data as given in patent publication US20120207760A1.
Values joined by “and” are separate entries in the source; they are usually repeats but may differ in a detail not shown here. Equal entries are not always repeated.

Target: M2 protein of influenza A/Hong Kong/483/97 (H5N1) (Influenza A virus A/Hong Kong/483/97)

Sequence of TCN-032 (8I10) (antibody) (VH): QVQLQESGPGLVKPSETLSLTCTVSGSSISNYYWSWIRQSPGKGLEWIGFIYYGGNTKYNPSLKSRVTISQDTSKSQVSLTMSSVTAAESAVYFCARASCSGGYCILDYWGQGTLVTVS
Sequence of TCN-032 (8I10) (antibody) (VL): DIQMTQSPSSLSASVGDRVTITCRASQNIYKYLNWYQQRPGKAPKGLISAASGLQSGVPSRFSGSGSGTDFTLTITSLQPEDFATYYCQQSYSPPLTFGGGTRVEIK

**Q.** TCN-032 (8I10) (antibody) was tested. Which FACS M2-HK MFI did it give?
**A.** 754 MFI and 1080 MFI
